Reference: patent publication US20240101642A1

Biological target: phosphopeptide-ligated β2AR with a deletion of the third intracellular loop (β2ARppΔ238-267), in HDL particles (human), P07550
Experiment: cell-based or functional assay

fold increase of agonist affinity by the transducer: 10 fold | log IC50 of isoproterenol (ISO), competition radioligand binding, in the presence of βarr1 (no transducer: -6.91+/-0.04): -7.63 log
B1: β-arrestin1, minimal cysteine and truncated variant of rat βarr1 (βarr1-MC-393), P29066 1-393 (protein, UniProt P29066 1-393, looked up)
chain: MGDKGTRVFKKASPNGKLTVYLGKRDFVDHIDLVDPVDGVVLVDPEYLKERRVYVTLTAAFRYGREDLDVLGLTFRKDLFVANVQSFPPAPEDKKPLTRLQERLIKKLGEHAYPFTFEIPPNLPSSVTLQPGPEDTGKAIGVDYEVKAFVAENLEEKIHKRNSVRLVIRKVQYAPERPGPQPTAETTRQFLMSDKPLHLEASLDKEIYYHGEPISVNVHVTNNTNKTVKKIKISVRQYADIVLFNTAQYKVPVAMEEADDTVAPSSTFSKVYTLTPFLANNREKRGLALDGKLKHEDTNLASSTLLREGANREILGIIVSYKVKVKLVVSRGGLLGDLASSDVAVELPFTLMHPKPKEEPPHREVPESETPVDTNLIELDTNDDDIVFEDFAR
